Experimental findings from PMC11772769, “Selective cargo and membrane recognition by SNX17 regulates its interaction with Retriever” (EMBO Reports, 2024) are described below.

The target of this assay is Peptide SNX17_(CT-18) (UniProt Q15036). Put plainly: fluorescence polarisation.

In turn, “VPS26C-VPS35L_(110-598) complex (from UniProt O14972 1-297; Q7Z3J2 110-598)” yielded a Kd of 5.3 µM.
